Results reported in the nanobody polyreactivity screen of Harvey et al. (2022).

Experiment: yeast display, Sf9 membrane polyspecificity reagent, FACS + sequencing; frameworks hold sequencing errors
Summary of the method: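 After 36–48 hours of galactose induction, yeast (Saccharomyces cerevisiae BJ5465) displaying a synthetic nanobody library were stained at 4 °C for 1 hour with 10% biotinylated, detergent-solubilized Sf9 membrane reagent. Streptavidin microbeads enriched the stained cells before FACS sorting into low and high (top ~1%) gates on anti-HA and streptavidin fluorescence. Each clone's polyreactivity label reflects its gate of origin.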

Sequence | polyreactivity (PSR sort gate)
QVQLVESGGGLVQAGGSLRLSCAASGRIFGIYAMGWYRQAPGKERELVAAISKSGARTYYADSVKGRFTISRDNAKNTVFLQMNSLKPEDTAVYYCNAYRRKYYFTYGSWGQGTQVTVSS | high polyreactivity
QVQLVESGGGLVQAGGSLRLSCAASGFTFVDYAMGWYRQAPGKERELVAAISSSGDSTYYADSVKGRFTISRDNAKITVYLQMNSLKPEDTAVYYCAAEYDREEYSGYDYWGQGTQVTVSS | low polyreactivity
QVQLVESGGGLVQAGGSLRVSCAASGIIFGPYVMGWSRQAPGKERELVATISRTGDTYYADSVKGRFTISRDNAKNTVYLQMNSLKPEDTAVYYCNTQDHGYGFTMDYWGQGTQVTVSS | low polyreactivity
QVQLVESGGGLVQAGGSLRLSCAASGRTLATYAMGWYRQAPGKERELVAAISTSGTRTYYADSVKGRFTISRDNAKNTVYLQMNSLKPEDTAVYYCNAGPGYDYWGHGTQVTVSS | high polyreactivity
QVQLVESGGGLVQAGGSLRLSCAASGIIFRLNAMGWYRQAPGKERELVAAMRRRGGSTYYADSVKGRFTISRDNAKNTVYLQMNSLKPEDTAVYYCAKDPVTTFYKYDYWGQGTQVTVSS | low polyreactivity
QVQLVESGGGLVQAGGSLRLSCAASGLTLQRYTMGWYRQAPGKERELVAAISRSGGGTYYADSVKGRFTISRDNAKNTVYLQMNSLKPEDTAVYYCNKVRGAVPWFDMDYWGQGTQVTVSS | high polyreactivity
QVQLVESGGGLVQAGGSLRLSCAASGRIFRWYPMGWYRQAPGKESELDATISSTGGSTYYADSVKGRFTISRDNAKNTVYIQMNSLKPEVTAVYYCNAVVYGIFLYAWYDYWGQGTQVTVSS | low polyreactivity
QVQLVESGGGLVQAGGSLRLSCAASGSIFAYYAMGWYRQAPGKEMELVAAITRGGTTYYADSVKGRFTISRDNAKNTVYLQMNSLKPEDTAVYYCAVYYYSGTAGYRYGYWGQATQVTVSS | high polyreactivity
QVQLVESGGGLVQAGGSLRLSCAASGSIFDLNAMGWYRQAPGKERELVAAISKSGGSTYYADSVKGRFTISRDNAKNTVYLQMISLKPEDSAVYYCAARYHYPGNWYNYWGQGTQVTVSS | low polyreactivity
QVQLVESGGGLVKEGGSLRLSSAASGSTNRYYAMGLYRQAPGKERELVAGITTGGGRTYYADSEKGRFTISRDNAKYTVYLQMTSLKPEDTAVYYCAADRLSHYWYRISYDYWGQCTQVTVSS | high polyreactivity
QVQLVESVGGLVQAGGSLRLSCAASGLIFASYAMGWYRQAPGKERELVAAISWSGGSTYYADSVKGRFTISRDYAKITVYLQMNSLKPEDTAVYYCAAIRYAYGSLDYWGQGTQVTVSS | high polyreactivity
QDQVVESGGGLVQAGGSLRLSCAASGRTFAIYAMGWYRQAPGKEREFVAAITWRSGSTYYADSVKGRFTISRDNAKNTVYLQMMSVKPEDTAVYFCAAYPYSYLQLMDYWGQGTQVTVSS | high polyreactivity
QVQLVESGGGLVQAGGSLRLSCAASGRTFRYYAMGWYIQAPGKERELVAAISWRGGSTYYAYSVKGRFTLSRDYAKNTVYLQINSLKPEDTAVYYCAAGILFGHYDYWGQATQVTVSS | high polyreactivity
QVQLVESGGGLVQAGGRLRISCAASGFTFEYNDMGWYRQAPGKERELVASISYDSDSTYYADSVKGRFTISRDNAKNTVYLQMNSLKPEDTAVYYCNAGSSYHEYGYWGQGTQVTVSS | high polyreactivity
QVQLVESGGGLVQEGGSLRLSCASSGRIFDYYAMGWYRQAPGKESELVAAISSSVGNTYYADSVKGRFTISRDNAKNTVYFQMNRLKQEDTAVYYFADYSYVRSSYEVEYDYWGQGTQVTVSS | low polyreactivity
QVQLVESGGGLVQAGGSLRLTCAASGRIFGWYAMGWYRQAPGKEREFVAAITVTGGSTYYADSVKGRFTISRDNAKNTVYLQMNSLKPEDTAVYYCAADRWYTRTGFDYWGQGTQVTVSS | low polyreactivity
QVQLVESGGGLVQAGGSLRLSCAASGSTFAGNAMGWYIQAPGKERELVAAISSSGAGTYYADSVKGRFTISRDNAKNTVYLLINSLKPADTAVYYCNVGSRALRRRVRSVSFDYWGQGTQVSVSS | low polyreactivity
QVQLVESGGGLVQAGGSLRLSCAASGIIFSWYAMGWYRQAPGKERELVASITASGGSTYYADSVKGRFTISRDTAKNTVSFQMHSLKPEDTAVYYCAVRYGHRSFASVYVEYDYWGQGTQVTVSS | low polyreactivity
QVQLVESGGGLVQAGGSLRLSCAASGSTFRFYAMGWYRQAPGKERELVAAITWRGGRTYYADSVKGRFTISRDNAKNTVYLQMNRLKPEDTAVYYCAGGRGWQSQIPAKYYYWGQGTQVTVSS | high polyreactivity
QVQLVESGGGLVQAGGSLRLSCAASGIIIITYAMGWYRQAPGKERELVAVISFSGGGTYADSVKGRFTISRDNAKNTVYLQMNSLKPEVTAVYYCAKYWLSALTLEDDYCGQGTQVTVSS | low polyreactivity

Sequence | polyreactivity (PSR sort gate)
QVQLVESGGGLVQAGGSLRLSCAASGSTLIWNVMGWYRQAPGKERELVATISSGGRTYYADSVKGRFTISRDNAKNTVYLQMNSLKPEDTAVYYCAARSRRGVSYRSYRSFDYWGQGTQVTVSS | high polyreactivity
QVQLVESGGGLVQAGGSLRLSCAASGITFGNYAMGWYRQAPGKERELVAAITGSGGRTYYADSVKGRFTISRDNAKNTVYLQMNSLKPEDTAVYYCNRRQYGRKKQYDYWGQGTQVTVSS | high polyreactivity
QVQLVESGGGLVQAGGSLRLSCAASGSIFLTYAMGWYRKAPGKERELVAAISGGGNTYYADSVKGRFTISRDNAKNTVYLQKNSLKPEDTAVYYCNAVPHIYAEGTAYNYWGQGTQVTVSS | low polyreactivity
QVQLVESGGGLVQAGGSLRLSGAASGFTFDNNAMGWYRQAPGKEREMVAAITGRGSRTNYADSVKGRFTISRDNAKNTVYLQMNSLKPEDTAVYYCATRLWVYGEGSFDDWGQGTQVTVSS | high polyreactivity
QVQLVESGGGLVQAGGSLRLSCAASGSIFYPNAMGWYRQAPGKERELVAAITVGGGRTYYADSVKGRFTISRDNAKNTVYLQMNSLKPEDTAVYYCAAQEIVRYPRFDKYDYWGQGTQVTVSS | low polyreactivity
QVQLVESGGGLVQAGGSLRLSCAASGSIFYGNTMGWYRQAPGKERELVAAISSGGGSTYYADSVKGRFTISRDNAKNTFYSKMNSMKPEETAVYYCAKRTYKQASGYWYDSWGQGTKVTVSS | high polyreactivity
QVQLVESGGGLVQAGGSLRLSCAASGRTFKGYAMGWYRQAPGKERELVAAISYRGGSTYYADSVKGRFTISRDKAKKTFYLQMNSLKPEDTAVYYCAADIQPYVYDGYPVGMDYWGQGTQVTVSS | high polyreactivity
QVQLVESGGGLVQAGGSLRLSCAASGSIFCDKAMGWYRQAPGKERELVAAISIVGSTSYADSVKGRFTISRDNANNTVYLQMNSLKPEDTAVYYCAAENVRSDTGFDYWGQGTQVTVSS | low polyreactivity
QVQLVESGGGLVQAGGSLRLSCAASGSTFSDNAMGWSRQAPGKERELVATIDYDGSTYYADSVKGRFTISRDNAKNTVYLQMNSLRTEDTAVYYCAADVYQVPGPYWSRTYEYDYWGQGTQVTVSS | low polyreactivity
QVQLVESGGGLVQAGGSLRLSCAASGRIFPFYDMGWYRQAPGKERELVAAISTSGGSTYYADSVKGRFTISRDNAKNTVYLQMNSLKPEDTAVYYCNAQRALRSTYDSWGQGTQVTVSS | low polyreactivity
QVQLVESGGGLVQAGGSLRLSCAASGSTFVSSALGWSSQAPGKARELVARIRRSGGSTYYADSVKGRFTISRDNAKNTVYLQMNSLKPEDTAVYDCAAGYSRGQYRYNYWGQGTQVTVSS | high polyreactivity
QVQLVESGGGLVQAGGSLRLSCAASGIIFNDYAMGWYRQAPGKERELVATISWSGGSTYADSVKGRFTISRDNAKNTVYLQMNSLKPEDTAVYYCAAVPRRSYGGYPYYYWGQGTQVTVSS | low polyreactivity
QVQLVESGGGLVQAGGSLRLSCAASGITFSGNAKGWYRQAPGKERELDAAITFSGGITYYADSVKGRFTISRDNAKNTVFLQMNSLKPEDTAVYYSATDPIGGWTRPQRYGDDYWGQGTQVTVSS | low polyreactivity
QVQLVESGGGLVQAGGSLRLSCAASGSIFVVYAMGWSREGPGKERELVAAISWGIGSTYYADSVKGRFTISRDNAKNTVYLQPNSLKPEDTAVYYCAADTDIVLYDYWGQGTQVTVSS | low polyreactivity
QVQLVESGGGLVQAGGSLRLSCAASGSILGYYAMRWYRQAPGKERELVAAITASGGSTYYADSVKGRFTISRDNAKNTVYLQMNSLKPEDTAAYYCAAQYYATYGYWGQGTQVTVSS | low polyreactivity
QVQLVESGGGLVQAGGSLRLSCAASGFIFGVYAMGWYRQAPGKERELVASISVSGDDTYYADSVKGRFTISRDNAKNTVYLQMNSLKPEDTAVYYCAADYPGGIYYDDYLYDMDYWGQGTQVTVSS | low polyreactivity
QVQLVESGGGLVQAGGSLRLSCAASGRIFTRNTMGWYRQAPGKERELVAAITSRGGSTYYADSVKGRFTISRDNAKNTVYLQMNSLKPEDTAVYYCAADKPRSYYYWGQGTQVTVSS | high polyreactivity
QVQLVESGGGLVQAGGSLRLSCAASGRIFYTNAMGWYRQAPGKERELVATISLRGGSTYYADSVKGRFTISRDNAKNTVYLQLNSLKPEDTAVYDCAARFWSVYSGNPTYPKYYWGQGTQVTVSS | high polyreactivity
QVQLVESGGGLVQAGGSLRLSCAASGRIFLRYVMGWYRQAPGKERELVAAIRSNGGSTYADSVKGRFTISRDNAKNTVYLQMNSLKPEDTAVYYCAARYFNTKGSFVVGYGYWGQGSQVTVSS | high polyreactivity
QVQLVESGGGLVQAGGSLRLSCAASGFIFDYYAMGWYRQAPGKERELVAAITSRGGSTYYADSVKGRFTISRDNAKNTVYLQMNSLKPEDTAVYYCAARRRSAEYNYWGQGTQVTVSS | high polyreactivity
